Experimental data published in the supplement of paper PMC10567573.

B1: C2CD2L (parent)
chain: LTLKVLRSSSCGDTELLGQATLPV
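Further: lentivirally expressed fusions sorted by FACS into six bins by GFP to DsRed ratio, PSI derived from sequencing read proportions per bin multiplied by bin number.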

Variants of: B1
Assay: protein stability index of a GFP-peptide fusion (GPS, HEK-293T) (PSI 1-6); higher = more stable
Conditions: c terminus: a fixed tail appended
LTLKVLRNSSCGDTELLGQATLPV [S8N] gave a protein stability index of 3.13. With LTLKVLRMSSCGDTELLGQATLPV [S8M] the protein stability index was 3.9. LTLKVLRDSSCGDTELLGQATLPV [S8D] showed a protein stability index of 1.93. Variant LTLKVLRESSCGDTELLGQATLPV [S8E] has a protein stability index of 1.72. Work on LTLKVLRRSSCGDTELLGQATLPV [S8R] yielded a protein stability index of 3.03. With LTLKVLRSSSCGDTESLGQATLPV [L16S] the protein stability index was 1.72. LTLKVLRSSSCGDTEDLGQATLPV [L16D] gave a protein stability index of 2.69. Work on LTLKVLRSSSCGDTERLGQATLPV [L16R] yielded a protein stability index of 1.8. With GTLKVLRSSSCGDTELLGQATLPV [L1G] the protein stability index was 2.56. With ETLKVLRSSSCGDTELLGQATLPV [L1E] the protein stability index was 2.76. Work on NTLKVLRSSSCGDTELLGQATLPV [L1N] yielded a protein stability index of 2.97. FTLKVLRSSSCGDTELLGQATLPV [L1F] showed a protein stability index of 1. Variant LWLKVLRSSSCGDTELLGQATLPV [T2W] has a protein stability index of 2.99. LGLKVLRSSSCGDTELLGQATLPV [T2G] gave a protein stability index of 1.93. LPLKVLRSSSCGDTELLGQATLPV [T2P] gave a protein stability index of 2.8. LTLKVLRSSSCGDTELAGQATLPV [L17A] gave a protein stability index of 2.08. For LTLKVLRSSSCGDTELIGQATLPV [L17I], the protein stability index was 2.4. LTLKVLRSSSCGDTELNGQATLPV [L17N] gave a protein stability index of 3.12. LTLKVLRSSSCGDTELFGQATLPV [L17F] gave a protein stability index of 2.92. Work on LTLKVLRSSSCGDTELSGQATLPV [L17S] yielded a protein stability index of 1.28. Work on LTLKVLRSSSCGDTELRGQATLPV [L17R] yielded a protein stability index of 1.35. In the case of LTLKVLRSSSCGDTELDGQATLPV [L17D], the protein stability index is reported as 2.89. LTLKVVRSSSCGDTELLGQATLPV [L6V] gave a protein stability index of 3.39. With LTLKVQRSSSCGDTELLGQATLPV [L6Q] the protein stability index was 2.59. LTLKVRRSSSCGDTELLGQATLPV [L6R] gave a protein stability index of 2.03. For LTLKVFRSSSCGDTELLGQATLPV [L6F], the protein stability index was 2.21. LTLKVNRSSSCGDTELLGQATLPV [L6N] showed a protein stability index of 2.19. For LTLKVKRSSSCGDTELLGQATLPV [L6K], the protein stability index was 2.17. Work on LTLKVSRSSSCGDTELLGQATLPV [L6S] yielded a protein stability index of 1.89. For LTLKVLRSNSCGDTELLGQATLPV [S9N], the protein stability index was 1.82. Variant LTLKVLRSHSCGDTELLGQATLPV [S9H] has a protein stability index of 2.94. LTLKVLRSRSCGDTELLGQATLPV [S9R] showed a protein stability index of 3.44. For LTLKVLRSLSCGDTELLGQATLPV [S9L], the protein stability index was 1.16. For LTTKVLRSSSCGDTELLGQATLPV [L3T], the protein stability index was 2.71. LTKKVLRSSSCGDTELLGQATLPV [L3K] showed a protein stability index of 3.07. LTFKVLRSSSCGDTELLGQATLPV [L3F] gave a protein stability index of 2.31. In the case of LTGKVLRSSSCGDTELLGQATLPV [L3G], the protein stability index is reported as 2.16. Work on LTCKVLRSSSCGDTELLGQATLPV [L3C] yielded a protein stability index of 1.68. LTPKVLRSSSCGDTELLGQATLPV [L3P] gave a protein stability index of 3.51. LTSKVLRSSSCGDTELLGQATLPV [L3S] showed a protein stability index of 2.74. LTLKVLRSSSCGDTSLLGQATLPV [E15S] showed a protein stability index of 3.58. Variant LTLKVLRSSSCGDTQLLGQATLPV [E15Q] has a protein stability index of 2.47. Work on LTLKVLRSSSCQDTELLGQATLPV [G12Q] yielded a protein stability index of 2.12. For LTLKVLRSSSCRDTELLGQATLPV [G12R], the protein stability index was 2.71. LTLKVLRSSSCKDTELLGQATLPV [G12K] showed a protein stability index of 2.95. Work on LTLKVLRSSSCLDTELLGQATLPV [G12L] yielded a protein stability index of 2.82. Work on LTLKVLRSSSCTDTELLGQATLPV [G12T] yielded a protein stability index of 1.82. With LTLKVLRSSSCADTELLGQATLPV [G12A] the protein stability index was 1.66. Work on LTLKVLRSSSCGDTELLGQANLPV [T21N] yielded a protein stability index of 2.36. For LTLKVLRSSSRGDTELLGQATLPV [C11R], the protein stability index was 1.9. With LTLKVLRSSSPGDTELLGQATLPV [C11P] the protein stability index was 1.34. LTLKVLRSSSIGDTELLGQATLPV [C11I] gave a protein stability index of 4.68. With LTLKVLRSSSGGDTELLGQATLPV [C11G] the protein stability index was 2.58. In the case of LTLKVLRSSSCGDTELLLQATLPV [G18L], the protein stability index is reported as 3.01. LTLKVLRSSSCGDTELLAQATLPV [G18A] showed a protein stability index of 1.97. With LTLKVLHSSSCGDTELLGQATLPV [R7H] the protein stability index was 2.61. LTLKVLKSSSCGDTELLGQATLPV [R7K] showed a protein stability index of 3.05. LTLKVLRSSSCGDTELLGQATLFV [P23F] gave a protein stability index of 1.57. Work on LTLKVLRSSSCGDTELLGQATLPG [V24G] yielded a protein stability index of 2.02. In the case of LTLKVLRSSSCGDTELLGQATLPR [V24R], the protein stability index is reported as 3.59. Variant LTLKVLRSSSCGDTELLGQATLPF [V24F] has a protein stability index of 2.7. Variant LTLKVLRSSSCGDTELLGQATLPK [V24K] has a protein stability index of 1.85. With LTLKVLRSSSCGDTELLGQATLPM [V24M] the protein stability index was 4.58. In the case of LTLKFLRSSSCGDTELLGQATLPV [V5F], the protein stability index is reported as 1.86. Variant LTLKCLRSSSCGDTELLGQATLPV [V5C] has a protein stability index of 1.76. Variant LTLKRLRSSSCGDTELLGQATLPV [V5R] has a protein stability index of 2.05. For LTLKLLRSSSCGDTELLGQATLPV [V5L], the protein stability index was 2.75. LTLKALRSSSCGDTELLGQATLPV [V5A] showed a protein stability index of 2.3. LTLKVLRSSWCGDTELLGQATLPV [S10W] showed a protein stability index of 4.07. Variant LTLKVLRSSPCGDTELLGQATLPV [S10P] has a protein stability index of 2.45. Work on LTLKVLRSSDCGDTELLGQATLPV [S10D] yielded a protein stability index of 2. With LTLKVLRSSSCGDTELLGQATRPV [L22R] the protein stability index was 1.6. Work on LTLKVLRSSSCGDTELLGQATDPV [L22D] yielded a protein stability index of 2.67. For LTLKVLRSSSCGDKELLGQATLPV [T14K], the protein stability index was 1.04. Work on LTLKVLRSSSCGDEELLGQATLPV [T14E] yielded a protein stability index of 2.58. LTLKVLRSSSCGDNELLGQATLPV [T14N] gave a protein stability index of 1.91. With LTLKVLRSSSCGPTELLGQATLPV [D13P] the protein stability index was 2.02. In the case of LTLKVLRSSSCGNTELLGQATLPV [D13N], the protein stability index is reported as 2.85. LTLKVLRSSSCGRTELLGQATLPV [D13R] gave a protein stability index of 1.47. LTLKVLRSSSCGDTELLGTATLPV [Q19T] gave a protein stability index of 1.59. Work on LTLKVLRSSSCGDTELLGDATLPV [Q19D] yielded a protein stability index of 1.61. With LTLKVLRSSSCGDTELLGHATLPV [Q19H] the protein stability index was 2.94. With LTLNVLRSSSCGDTELLGQATLPV [K4N] the protein stability index was 1.19. LTLWVLRSSSCGDTELLGQATLPV [K4W] gave a protein stability index of 2.53. For LTLMVLRSSSCGDTELLGQATLPV [K4M], the protein stability index was 1.06. For LTLYVLRSSSCGDTELLGQATLPV [K4Y], the protein stability index was 3.27. For LTLDVLRSSSCGDTELLGQATLPV [K4D], the protein stability index was 1.94. LTLKVLRSSSCGDTELLGQETLPV [A20E] showed a protein stability index of 2.1. With LTLKVLRSSSCGDTELLGQNTLPV [A20N] the protein stability index was 2.49. LTLKVLRSSSCGDTELLGQGTLPV [A20G] gave a protein stability index of 1.03. Work on LTLKVLRSSSCGDTELLGQPTLPV [A20P] yielded a protein stability index of 1.96. Variant LTLKVLRSSSCGDTELLGQMTLPV [A20M] has a protein stability index of 2.92. In the case of LTLKVLRSSSCGDTELLGQSTLPV [A20S], the protein stability index is reported as 1.48. For LTLKVLRSSSCGDTELLGQKTLPV [A20K], the protein stability index was 3.04.
